Key:
[1] = molecular target: T1, cynoFcRn (cynomolgus monkey, UniProt Q8SPV9); test: Biacore, cynoFcRn at pH 6.0
T1 construct: also called cynomolgus FcRn

[2] = molecular target: human FcRn (human, UniProt P55899 24-297; P61769 21-119, limits assumed); test: Biacore, pH 6.0; human FcRn at pH 6.0, Biacore; parental IgG, not IgG-scFv
[3] = molecular target: T2, LRP6 PD1/2 (human, UniProt O75581 19-629); test: Biacore T-100 SPR, antibody captured by anti-human IgG Fc on a CM4 chip, PD1/2 injected; N = 4
T2 construct: range 19-629; Recombinant soluble fragment; also called Propeller Domains 1-2 of LRP6; recombinant LRP6 PD1/2
T2 sequence (looked up): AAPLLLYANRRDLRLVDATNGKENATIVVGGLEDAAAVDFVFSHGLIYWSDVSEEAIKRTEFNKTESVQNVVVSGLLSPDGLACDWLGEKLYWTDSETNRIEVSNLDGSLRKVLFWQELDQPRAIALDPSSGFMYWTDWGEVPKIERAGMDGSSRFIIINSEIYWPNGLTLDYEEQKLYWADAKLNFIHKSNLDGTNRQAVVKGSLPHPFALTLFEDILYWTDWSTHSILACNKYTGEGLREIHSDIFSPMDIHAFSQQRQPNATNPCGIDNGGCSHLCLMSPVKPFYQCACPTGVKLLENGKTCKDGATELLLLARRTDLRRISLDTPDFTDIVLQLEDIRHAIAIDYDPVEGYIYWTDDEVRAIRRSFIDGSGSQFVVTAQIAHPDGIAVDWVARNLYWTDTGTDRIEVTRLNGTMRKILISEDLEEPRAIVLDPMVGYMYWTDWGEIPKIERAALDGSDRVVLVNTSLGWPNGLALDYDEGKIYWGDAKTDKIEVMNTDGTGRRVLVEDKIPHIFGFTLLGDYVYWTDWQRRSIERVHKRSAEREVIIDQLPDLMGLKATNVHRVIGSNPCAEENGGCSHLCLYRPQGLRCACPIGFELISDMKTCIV
Description: The carboxymethyl dextran surface was activated with a 7 min injection of a 1:1 ratio of 0.4 M EDC (1-Ethyl-3-[3-dimethylaminopropyl]carbodiimide hydrochloride) and 0.1 M NHS(N-hydroxysuccinimide). […] PD1/2 and PD3/4 were prepared as two fold concentration series starting at 50 nM, and injected at 30 μl/min for 1 min. […] The surfaces were then regenerated two times with 10 mM glycine (pH 2.2). […] PD3/4 at a saturating concentration of 100 nM was then flowed over the surface at a flow rate of 30 μl/min for 30 min. A saturating concentration of 100 nM PD1/2 was injected immediately after the PD3/4. The dissociation constant (KD), association (kₒₙ), and dissociation (koff) rates were calculated from the baseline subtracted corrected binding curves using the BIAevaluation software (GE Healthcare).

Kd [1]: 280 nM
Kd [2]: 23 nM
Kd [3]: 1.08 nM
koff [3]: 9.05e-05 s⁻¹
kon [3]: 87200 M⁻¹ s⁻¹
B1: MOR08168 hIgG1LALA (antibody)
heavy: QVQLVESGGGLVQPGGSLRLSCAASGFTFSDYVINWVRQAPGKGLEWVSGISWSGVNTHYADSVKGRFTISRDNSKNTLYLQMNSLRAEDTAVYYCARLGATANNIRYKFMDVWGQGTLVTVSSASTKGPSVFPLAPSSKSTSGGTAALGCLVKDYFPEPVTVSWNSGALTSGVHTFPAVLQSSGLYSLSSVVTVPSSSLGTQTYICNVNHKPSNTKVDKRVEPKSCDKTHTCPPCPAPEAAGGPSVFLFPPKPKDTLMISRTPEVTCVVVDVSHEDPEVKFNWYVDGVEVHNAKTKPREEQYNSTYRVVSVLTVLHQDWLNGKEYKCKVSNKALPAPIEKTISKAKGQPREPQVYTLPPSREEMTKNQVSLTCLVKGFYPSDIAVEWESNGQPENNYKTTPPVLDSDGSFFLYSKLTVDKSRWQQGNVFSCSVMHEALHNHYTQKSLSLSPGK
light: DIELTQPPSVSVAPGQTARISCSGDSLRNKVYWYQQKPGQAPVLVIYKNNRPSGIPERFSGSNSGNTATLTISGTQAEDEADYYCQSYDGQKSLVFGGGTKLTVLGQPKAAPSVTLFPPSSEELQANKATLVCLISDFYPGAVTVAWKADSSPVKAGVETTTPSKQSNNKYAASSYLSLTPEQWKSHRSYSCQVTHEGSTVEKTVAPTECS
notes: Human IgG1 LALA / lambda; also called Propeller 1 IgG (MOR08168); MOR08168 (propeller 1 antibody)

From patent US20130058934A1 (Novartis, published 2013)
